Test results: patent US20150203581A1 (Genentech, published 2015)
Where a chain is given by its changes, count along the chain named. Names and notes keep the numbering of the source. Like-named read-outs stand apart in the source and are kept apart here.

What was measured:
[1] = target: T1, recombinant human integrin α5β1 (human, UniProt P08648 42-995; P05556 21-728); assay: cell-based or functional assay
[2] = target: T1, recombinant human integrin α5β1; assay: SPR (BIAcore), antibody as hIgG is the captured ligand, Human Integrin α5β1 (R&D) is the analyte
Protocol: (§1) To determine binding kinetics and affinities of the antibodies described herein, Surface Plasmon Resonance (SRP) measurement with a BIAcore™-3000 instrument was used. Antibody was first captured by pre-immobilized rabbit anti-human Fc CM5 biosensor chip on the different flow cell to achieve approximately 150 RU (Response Units). For kinetics measurements, 2-fold serial dilutions of human integrin α5β1 (300 nM to 1.2 nM) were injected in PBT buffer (PBS with 0.05% Tween 20) at 25° C. with a flow rate of 30 μl/min. Association rates (kₒₙ) and dissociation rates (koff) were calculated using a simple one-to-one Langmuir binding model (BIAcore Evaluation Software version 3.2). The equilibrium dissociation constant (KD) was calculated as the ratio koff/kₒₙ.
(§2) To determine binding kinetics and affinities of chimeric 18C12, h18C12.v6.1, h18C12.v6.1.1, h18C12.v6.1.2, h18C12.v6.1.3, h18C12.v6.1.4, h18C12.v6.1.5 IgGs, Surface Plasmon Resonance (SRP) measurement with a BIAcore™-3000 instrument as described in Example 1 was used.

[3] = target: T1, recombinant human integrin α5β1; assay: SPR (BIAcore), IgG captured on anti-human Fc chip, Human Integrin α5β1 (R&D) as analyte
Protocol: as §1, §2

[4] = target: T1, recombinant human integrin α5β1; assay: cell-based or functional assay; remark: listed apart in the source
[5] = target: T2, recombinant α5β1 extracellular domain; assay: blocking ELISA: antibody titrated and premixed with recombinant α5β1 (R&D), then added to fibronectin-coated wells; bound α5β1 detected with anti-β1-biotin / streptavidin-HRP (OD450); the blocked ligand is fibronectin
T2 construct: extracellular domain; also called α5β1 (R & D Systems)
T2 sequence (P08648 42-995, chain 1 of 2): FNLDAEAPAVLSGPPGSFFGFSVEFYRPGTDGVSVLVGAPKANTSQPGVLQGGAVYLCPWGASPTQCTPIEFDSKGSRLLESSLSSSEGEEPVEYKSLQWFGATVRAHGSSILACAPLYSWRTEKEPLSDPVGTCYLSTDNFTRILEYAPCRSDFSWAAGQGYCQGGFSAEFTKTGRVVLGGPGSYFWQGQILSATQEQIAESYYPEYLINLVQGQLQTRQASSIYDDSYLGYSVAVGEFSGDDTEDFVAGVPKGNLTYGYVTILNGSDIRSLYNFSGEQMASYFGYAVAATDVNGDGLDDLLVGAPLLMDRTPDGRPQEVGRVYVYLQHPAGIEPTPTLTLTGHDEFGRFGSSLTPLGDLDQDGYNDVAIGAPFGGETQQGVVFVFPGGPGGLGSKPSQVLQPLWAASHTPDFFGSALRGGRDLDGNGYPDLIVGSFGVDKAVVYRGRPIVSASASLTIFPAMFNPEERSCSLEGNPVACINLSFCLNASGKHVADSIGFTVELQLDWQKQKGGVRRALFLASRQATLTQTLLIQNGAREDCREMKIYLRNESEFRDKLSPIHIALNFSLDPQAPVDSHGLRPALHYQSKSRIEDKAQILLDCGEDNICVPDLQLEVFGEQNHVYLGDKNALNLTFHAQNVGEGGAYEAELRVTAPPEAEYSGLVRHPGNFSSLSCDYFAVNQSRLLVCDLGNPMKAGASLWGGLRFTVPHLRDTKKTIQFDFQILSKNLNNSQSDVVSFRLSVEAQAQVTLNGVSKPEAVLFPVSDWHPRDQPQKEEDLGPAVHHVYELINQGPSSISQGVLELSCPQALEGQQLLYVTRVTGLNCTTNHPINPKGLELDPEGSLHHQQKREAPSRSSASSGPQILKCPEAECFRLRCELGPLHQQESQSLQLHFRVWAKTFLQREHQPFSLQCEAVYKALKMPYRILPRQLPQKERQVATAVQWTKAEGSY
T2 sequence (P05556 21-728, chain 2 of 2, further chain): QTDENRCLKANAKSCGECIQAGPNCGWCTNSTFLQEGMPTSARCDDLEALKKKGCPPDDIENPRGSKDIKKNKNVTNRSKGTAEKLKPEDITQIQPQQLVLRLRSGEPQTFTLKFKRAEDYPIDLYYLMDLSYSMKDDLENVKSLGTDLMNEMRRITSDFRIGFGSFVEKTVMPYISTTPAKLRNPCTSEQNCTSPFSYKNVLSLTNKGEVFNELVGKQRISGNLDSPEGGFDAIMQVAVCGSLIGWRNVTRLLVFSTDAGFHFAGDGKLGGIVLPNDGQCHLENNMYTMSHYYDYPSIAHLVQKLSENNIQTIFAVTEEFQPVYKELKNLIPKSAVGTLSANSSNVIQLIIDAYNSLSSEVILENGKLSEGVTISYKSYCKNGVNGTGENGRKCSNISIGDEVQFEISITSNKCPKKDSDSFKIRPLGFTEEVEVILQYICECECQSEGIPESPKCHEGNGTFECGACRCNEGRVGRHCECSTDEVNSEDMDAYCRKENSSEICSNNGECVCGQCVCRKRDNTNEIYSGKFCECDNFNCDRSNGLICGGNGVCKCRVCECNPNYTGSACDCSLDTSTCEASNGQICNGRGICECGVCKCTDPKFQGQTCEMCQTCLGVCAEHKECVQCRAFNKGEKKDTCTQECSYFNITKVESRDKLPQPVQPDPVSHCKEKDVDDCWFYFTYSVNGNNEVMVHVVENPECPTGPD
Protocol: anti-β5β1 antibody (30 μg/mL) was serially diluted 1:3 11 times. 50 μl of the serially diluted anti-β5β1 antibody was added to 0.65 mL micro tubes and premixed (1:1) with 50 μL of 200 ng/mL […] (R & D Systems) in ELISA buffer (150 mM NaCl, 10 mM Tris, pH 7.5, 5 mg/mL BSA, 1 mM MnCl₂) for 60 minutes at room temperature with gentle agitation. 25 μL of the premixed α5β1 and anti-β5β1 antibody was added to the Fibronectin coated wells and the plates were incubated at room temperature for 60 minutes with gentle agitation. Plates were washed 6 times with PBT buffer, 100 ng/mL anti-β1-biotin in ELISA buffer was added to each well and the plates were incubated for 60 minutes at room temperature with gentle agitation. Plates were washed 6 times with 80 μL PBT buffer, 25 μL of Streptadvidin-HRP (1:50,000 in ELISA buffer, GE Healthcare) was added to each well, and the plates were incubated for 60 minutes at room temperature with gentle agitation. Plates were washed 6 times with 80 μL PBT buffer, 25 μl of TMB substrate (Kirkgaard and Perry Laboratories) was added to each well, plates were incubated about 6 minutes at room temperature, and the reaction was stopped with 25 μL of 1 M Phosphoric Acid. Absorbance was read at 450 nm and IC₅₀ values were analyzed as described in section B above. […]

[6] = target: T1, recombinant human integrin α5β1; assay: BIAcore SPR, IgG captured by anti-human Fc, human integrin α5β1 as analyte
Protocol: as §1, §2

[7] = target: T1, recombinant human integrin α5β1; assay: SPR (BIAcore), antibody as hIgG is the captured ligand, Human Integrin α5β1 (R&D) is the analyte; remark: listed apart in the source
Protocol: as §1

[8] = target: T1, recombinant human integrin α5β1; assay: phage competition ELISA: Fab-displaying phage pre-incubated with serially diluted soluble human integrin α5β1, unbound phage captured on plate-coated human integrin α5β1, anti-M13-HRP detection
Protocol: MAXISORP™ microtiter plates were coated with recombinant human integrin β5β1 (R&D) at 5 μg/ml in PBS overnight and then blocked with PBST buffer (0.5% BSA and 0.05% Tween 20 in PBS) for an hour at room temperature. Phage from culture supernatants were incubated with serially diluted human integrin α5β1 in PBST buffer in a tissue-culture microtiter plate for an hour, after which 80 μl of the mixture was transferred to the target-coated wells for 15 minutes to capture unbound phage. The plate was washed with PBT buffer (0.05% Tween 20 in PBS), and HRP-conjugated anti-M13 (Amersham Pharmacia Biotech) was added (1:5000 in PBST buffer) for 40 minutes. The plate was washed with PBT buffer and developed by adding tetramethylbenzidine substrate (Kirkegaard and Perry Laboratories, Gaithersburg, Md.). The absorbance at 450 nm was plotted as a function of target concentration in solution to determine phage IC₅₀.

T1 sequence (P08648 42-995 limits assumed, chain 1 of 2): as the sequence (P08648 42-995, chain 1 of 2) above
T1 sequence (P05556 21-728 limits assumed, chain 2 of 2): as the sequence (P05556 21-728, chain 2 of 2, further chain) above

B1: chimeric 18C12 (antibody, V domains shown)
VH: EVHLVESGGDLVQPGSSLKLSCAASGFTFSNRWIYWVRQAPGKGLEWVGGIKTKPNIYATEYADSVKGRFTISRDDSKNSLYLQMNTLRVDDTAIYYCTSLTGMRYFDYWGQGT
VL: QPVLTQSPSASASLGNSVKITCTLSSQHSTYTIGWYQQHPDKAPKYVMYLNSDGSHNKGDGIPDRFSGSSSGAHRYLSISNIQPEDEADYFCGSSYSSGYVFGSGT
notes: also called chimeric 18C12 IgG
Q: How did the “IC50 for inhibition of adhesion of U937 cells to plate-coated fibronectin (Cell-Titer Glo luminescence); the target is α5β1 on the U937 cells” value [1] turn out when B1 was run?
A: Its value is 0.159 nM.

Q: What about the Kd [2] of the same binder?
A: The Kd was 7.68 nM.

Q: And the koff [2]?
A: Its koff is 0.000922 s⁻¹.

Q: What about the kon [2] of the same binder?
A: The kon was 120000 M⁻¹ s⁻¹.

B2: h18C12.v6.1.2 (antibody, V domains shown)
VH: EVQLVESGGGLVQPGGSLRLSCAASGFTFSARWIYWVRQAPGKGLEWVGGIKTKPAIYATEYADSVKGRFTISRDDSKNTLYLQMNSLRAEDTAVYYCARLTGMKYFDYWGQGT
VL: SSELTQDPAVSVALGQTVRITCTLSSQHSTYTIGWYQQKPGQAPVYLMYLNSDGSHNKGSGIPDRFSGSSSGATRSLTITNAQAEDEADYYCAAYYAYGYVFGGGT
notes: copies: 2 + 2
Q: What does the source list for B2?
A: Kd [3]: 13.5 nM; koff [3]: 0.000643 s⁻¹; kon [3]: 48000 M⁻¹ s⁻¹

B3: h18C12.v6.1.5 (antibody, V domains shown)
VH: B2 VH
VL: B2 VL with G54S
notes: Derived from h18C12.v6.1 by removing Asn in CDR-L2 positions 50a-50d; also called anti-α5β1 antibody h18C12.v6.1.5
Q: Which results are given for B3?
A: IC50 for inhibition of adhesion of U937 cells to plate-coated fibronectin (Cell-Titer Glo luminescence); the target is α5β1 on the U937 cells [4]: 0.126 nM; Kd [3]: 15.5 nM; koff [3]: 0.000659 s⁻¹; kon [3]: 43000 M⁻¹ s⁻¹; IC50 [5]: 0.077 nM

B4: h18C12.v6.1Lam3 (antibody, V domains shown)
VH: B2 VH
VL: B2 VL with D53S
notes: CDRs come from h18C12.v6 with changes in CDR-L2 (D50cS, D56S), CDR-H1 (N31A) and CDR-H2 (N53A); The human λIII framework carries L46Y, V47L, I48M, N69A, A71R and G77N
Q: With B4 as the binder, how does the “IC50 for inhibition of adhesion of U937 cells to plate-coated fibronectin (Cell-Titer Glo luminescence); the target is α5β1 on the U937 cells” value [1] read?
A: Its value is 0.207 nM.

Q: What about the “fold higher binding affinity than hamster 18C12” value [6] of the same binder?
A: Its value is about 2 fold.

Q: What about the Kd [2] of the same binder?
A: Its Kd is 4 nM.

Q: What about the koff [2] of the same binder?
A: Its koff is 0.000386 s⁻¹.

Q: And the kon [2]?
A: Its kon is 97000 M⁻¹ s⁻¹.

B5: h18C12.v3 (Fab, V domains shown)
VH: B2 VH with A31N, A56N, K105R
VL: EPVLTQSPSASASLGASVKLTCTLSSQHSTYTIGWYQQQPGKAPRYLMYLNSDGSHNKGDGIPDRFSGSSSGADRYLTISNLQSEDEADYYCGSSYSSGYVFGGGT
notes: also called Humanized 18C12.v3; h18C12.v3 parental clone
Q: How did the Kd [7] turn out when B5 was run?
A: Its Kd is 11.5 nM.

Q: What about the koff [7] of the same binder?
A: The koff was 0.000807 s⁻¹.

Q: And the kon [7]?
A: Its kon is 71000 M⁻¹ s⁻¹.

Q: What about the IC50 [8] of the same binder?
A: Its IC50 is 0.72 nM.

B6: h18C12.v6 (Fab, V domains shown)
VH: B2 VH with A31N, A56N
VL: B5 VL with G93A, S94A, S95Y, S97A, S98Y
Q: Which results are given for B6?
A: Kd [7]: 4.8 nM; koff [7]: 0.00075 s⁻¹; kon [7]: 174000 M⁻¹ s⁻¹; IC50 [8]: 0.41 nM
